Assay [1] deals with LY6A (C57BL/6J allele), expressed from Ly6a cDNA in HEK293T cells (mouse (C57BL/6J)) (UniProt P05533). The assay is described as follows: bound vector genome assay (qPCR of viral genomes on cells); HEK293T cells transfected with Ly6 cDNA or left untransfected; 48 h later chilled to 4°C, recombinant AAV at 10^5 vg/cell for one hour, washed three times with cold PBS; vector genomes normalized to cell genomes.

The target in assay [2] is LY6A, endogenous on primary brain microvascular endothelial cells of C57BL/6 mice (mouse (endogenous in C57BL/6 BMVECs)) (UniProt P05533). As to the kind of experiment: bound vector genome assay (qPCR of viral genomes on cells); primary BMVECs of C57BL/6 mice treated with SaCas9 vectors with sgRNAs against Ly6a or Ly6c1 or no sgRNA; 4°C, one hour, AAV at 10^6 vg/cell; normalized to cells treated with a vector lacking a sgRNA.

Take “AAV-PHP.B capsid (engineered AAV9 variant) (from UniProt Q6JC40 1-736; Q6JC40 1-736; Q6JC40 1-736) (complex)”: the fold increase in binding to cells on Ly6a expression in assay [1] is > 50 fold.

For the substance “AAV-PHP.eB capsid (engineered AAV9 variant, further evolved from AAV-PHP.B) (from UniProt Q6JC40 1-736; Q6JC40 1-736; Q6JC40 1-736) (complex)”, the reduction in binding to BMVECs on Ly6a disruption (~50% reduction of LY6A) in assay [2] came to 50%. Besides, in assay [1], the fold increase in binding to cells on Ly6a expression was > 50 fold.

These data come from article PMC6855452.
